In doi:10.1101/346296:

Experiments:
[1] = molecular target: WT nucleosomal array (recombinant Xenopus laevis histone octamers on 601-177-12 or 601-177-36 DNA) (Xenopus laevis); assay: AUC
[2] = molecular target: WT nucleosomal array with Sir2/4 complex added beforehand (S. cerevisiae | Xenopus laevis) (UniProt P06700); assay: AUC

Row | stoichiometry N (molecules of Sir3 per array) [1] | stoichiometry N (molecules of Sir3 per array) [2] | stoichiometry N (Sir2/4 per nucleosome) [1] | stoichiometry N (complexes bound per array) [1] | stoichiometry N (molecules of Sir2/4 per array) [1] | Substance
1 | 22 | 22 |  |  |  | FLAG-tagged Sir3 protein (from UniProt P06701 1-978) (natural protein)
2 |  |  | 1 | 4 | 11 | TAP-tagged Sir2/4 complex (from UniProt P06700;P11978)
